Patent publication US20150291952

Biological target: CHK2 (UniProt O96017)
Assay: EMSA
Conditions: SEQ:22 is the DNA template strand, RNA is its reverse complement

CHK2, sequence (O96017 whole entry): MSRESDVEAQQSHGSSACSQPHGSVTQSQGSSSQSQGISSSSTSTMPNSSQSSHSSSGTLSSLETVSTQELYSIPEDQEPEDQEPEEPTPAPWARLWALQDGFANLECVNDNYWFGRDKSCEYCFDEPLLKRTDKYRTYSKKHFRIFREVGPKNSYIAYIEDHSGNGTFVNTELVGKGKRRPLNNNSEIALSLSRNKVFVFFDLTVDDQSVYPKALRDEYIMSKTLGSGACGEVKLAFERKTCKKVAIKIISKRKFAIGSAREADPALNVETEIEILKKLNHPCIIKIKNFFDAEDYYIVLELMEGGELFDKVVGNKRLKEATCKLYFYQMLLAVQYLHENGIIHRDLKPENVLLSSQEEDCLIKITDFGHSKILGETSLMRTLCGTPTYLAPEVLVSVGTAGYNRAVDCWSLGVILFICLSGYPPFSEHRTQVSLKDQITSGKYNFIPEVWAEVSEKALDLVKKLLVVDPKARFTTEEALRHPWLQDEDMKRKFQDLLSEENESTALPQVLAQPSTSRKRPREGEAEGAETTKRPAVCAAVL

Sequence: AAGCUUCGUCAAGUCUGCAGUGAANNNNNNNNNNNNNNNNNNNNNNNNNNNNNNNNNNNNNNNNNNNNNNNNNNNNNNNNNNNNNNNNNNNNNNGAAUUCGUAGAUGUGGAUCCAUUCCC [CHK2 SELEX Cycle 6 pool]
- Kd (bulk pool, 86% bound, FP Kd 1.6-fold higher (FIG. 8)): 281 nM

Sequence: AAGCUUCGUCAAGUCUGCAGUGAANNNNNNNNNNNNNNNNNNNNNNNNNNNNNNNNNNNNNNNNNNNNNNNNNNNNNNNNNNNNNNNNNNNNNNGAAUUCGUAGAUGUGGAUCCAUUCCC [CHK2 RAPID Cycle 2 pool]
- Kd (bulk pool, 65% bound at highest protein): 390 nM

Sequence: AAGCUUCGUCAAGUCUGCAGUGAANNNNNNNNNNNNNNNNNNNNNNNNNNNNNNNNNNNNNNNNNNNNNNNNNNNNNNNNNNNNNNNNNNNNNNGAAUUCGUAGAUGUGGAUCCAUUCCC [N70 starting RNA library]
- Kd (starting library, 59% bound at highest protein): > 1000 nM

Sequence: AAGCUUCGUCAAGUCUGCAGUGAANNNNNNNNNNNNNNNNNNNNNNNNNNNNNNNNNNNNNNNNNNNNNNNNNNNNNNNNNNNNNNNNNNNNNNGAAUUCGUAGAUGUGGAUCCAUUCCC [CHK2 RAPID Cycle 4 pool]
- Kd (bulk pool, 72% bound at highest protein): 209 nM

Sequence: AAGCUUCGUCAAGUCUGCAGUGAANNNNNNNNNNNNNNNNNNNNNNNNNNNNNNNNNNNNNNNNNNNNNNNNNNNNNNNNNNNNNNNNNNNNNNGAAUUCGUAGAUGUGGAUCCAUUCCC [CHK2 SELEX Cycle 3 pool]
- Kd (bulk pool, 69% bound, FP Kd 1.6-fold higher (FIG. 8)): 315 nM

Sequence: AAGCUUCGUCAAGUCUGCAGUGAANNNNNNNNNNNNNNNNNNNNNNNNNNNNNNNNNNNNNNNNNNNNNNNNNNNNNNNNNNNNNNNNNNNNNNGAAUUCGUAGAUGUGGAUCCAUUCCC [CHK2 RAPID Cycle 6 pool]
- Kd (bulk pool, 87% bound at highest protein): 191 nM
